Measured values as given in patent publication US20110224407A1 (published 2011).

Columns and labels:
[1] = target: human IFNAR-1 on human cells (HeLa, WISH, A549) (human) (UniProt P17181); assay: cell-based or functional assay
[2] = target: murine IFNAR-1 on murine cells (L-929, NFS-01) (murine) (UniProt P33896); assay: cell-based or functional assay
[3] = target: T1, human IFNAR1-ECD (human, UniProt P17181 28-436); assay: SPR, IFNAR-1-ECD captured by antibody
T1 construct: extracellular domain; Purified ECD captured on the chip by antibody DB2 and cross-linked with AA3; also called purified human IFNAR-1
T1 sequence (looked up): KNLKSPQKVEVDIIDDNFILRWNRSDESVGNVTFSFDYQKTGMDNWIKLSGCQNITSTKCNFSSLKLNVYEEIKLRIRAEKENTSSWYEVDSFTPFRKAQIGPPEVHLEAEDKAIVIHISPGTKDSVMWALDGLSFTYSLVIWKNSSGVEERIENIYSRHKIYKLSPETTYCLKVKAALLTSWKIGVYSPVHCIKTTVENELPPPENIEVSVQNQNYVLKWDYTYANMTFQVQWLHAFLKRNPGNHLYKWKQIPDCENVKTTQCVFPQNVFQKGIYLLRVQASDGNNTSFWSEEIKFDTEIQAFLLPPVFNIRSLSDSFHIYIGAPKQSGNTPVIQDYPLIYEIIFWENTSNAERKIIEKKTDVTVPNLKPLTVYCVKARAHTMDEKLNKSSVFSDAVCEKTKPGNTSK
Description: Binding to purified human IFNAR-1 and IFNAR-2 is measured with the Protein Interaction Array system (Bio-Rad) according to published methods. A solution of 0.005% Tween20 in PBS pH 7.4 was used as running buffer at a flow rate of 30 μl/min. […] Thereafter, five of the six channels were reacted with IFNAR1-ECD or IFNAR2-ECD (180 μl at a concentration of 0.5 μM), leaving one channel free as reference. This was followed by cross-linking a second antibody. […] Data were analyzed with the BIAeval 4.1 software, using, the standard Langmuir models for fitting kinetic data. Dissociation constants KD were determined from the rate constants according to:

Sequence of murine IFNAR-1 on murine cells (L-929, NFS-01) (murine) (P33896 27-590): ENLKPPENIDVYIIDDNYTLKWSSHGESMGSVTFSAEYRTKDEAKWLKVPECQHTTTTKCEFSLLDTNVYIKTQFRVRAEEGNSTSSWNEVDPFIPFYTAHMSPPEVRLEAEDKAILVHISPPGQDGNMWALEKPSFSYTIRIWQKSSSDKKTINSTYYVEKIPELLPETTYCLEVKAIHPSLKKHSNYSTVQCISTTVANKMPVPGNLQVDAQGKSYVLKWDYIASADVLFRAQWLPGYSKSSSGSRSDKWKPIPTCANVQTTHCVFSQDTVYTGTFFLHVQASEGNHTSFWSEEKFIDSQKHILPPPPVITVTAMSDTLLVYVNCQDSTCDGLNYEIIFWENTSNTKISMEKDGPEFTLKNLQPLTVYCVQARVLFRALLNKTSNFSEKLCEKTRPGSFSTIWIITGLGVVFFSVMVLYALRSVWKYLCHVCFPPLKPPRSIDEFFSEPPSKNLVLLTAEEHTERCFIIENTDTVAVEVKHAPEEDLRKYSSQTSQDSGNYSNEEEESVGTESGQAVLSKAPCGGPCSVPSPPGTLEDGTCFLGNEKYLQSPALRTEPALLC

Work on “IFN-α2 NLYY-117A (N65A/L80A/Y85A/Y89A/L117A) (from UniProt P01563 24-188) (ligand)” yielded an Antiviral Activity (% of Native EC50), Human (Wish) [1] of 0.03%.

In the case of “IFN-α2 NLYY-120A (N65A/L80A/Y85A/Y89A/R120A) (from UniProt P01563 24-188) (ligand)”, the Antiproliferative Activity (% of Native EC50), Human (Wish) [1] is reported as under 0.001%, the Antiviral Activity (% of Native EC50), Human (HeLa) [1] is reported as under 0.002% and the Antiviral Activity (% of Native EC50), Human (Wish) [1] is reported as under 0.001%.

In the case of “IFN-α2/α1 5-site alanine substitution mutant (F64/N65/L80/C85/Y89) (from UniProt A0A087WWS6 25-190) (ligand)”, the Antiviral Activity (% of Native), Human (HeLa) [1] is reported as 4.2% and the Antiviral Activity (% of Native), Human (Wish) [1] is reported as 11%.

“IFN-α2/α1[C85A/Y89A] (from UniProt A0A087WWS6 25-190) (ligand)” was tested, and the Antiviral Activity (% of Native), Human (HeLa) [1] was 143% and the Antiviral Activity (% of Native), Human (Wish) [1] was 183%.

For “IFN-α2/α1[C85A] (from UniProt A0A087WWS6 25-190) (ligand)”, the Antiviral Activity (% of Native), Human (HeLa) [1] was 141% and the Antiviral Activity (% of Native), Murine (L-929) [2] was 144%.

Work on “IFN-α2/α1[K120A/K121A] (from UniProt A0A087WWS6 25-190) (ligand)” yielded an Antiproliferative Activity (% of native), Human (WISH) [1] of 0.5%, an Antiviral Activity (% of Native), Human (HeLa) [1] of 8.3% and an Antiviral Activity (% of Native), Human (Wish) [1] of 13.8%. For the same molecule, the Antiproliferative Activity (% of native), Murine (NFS-01) [2] was 8% and the Antiviral Activity (% of Native), Murine (L-929) [2] was 33%.

“IFN-α2/α1[K120A] (from UniProt A0A087WWS6 25-190) (ligand)” showed an Antiproliferative Activity (% of native), Human (WISH) [1] of 0.7%, an Antiviral Activity (% of Native), Human (HeLa) [1] of 2% and an Antiviral Activity (% of Native), Human (Wish) [1] of 9.7%. It also gave an Antiproliferative Activity (% of native), Murine (NFS-01) [2] of 0.03% and an Antiviral Activity (% of Native), Murine (L-929) [2] of 2%.

“IFN-α2/α1[K120E/K121E/R124E] (from UniProt A0A087WWS6 25-190) (ligand)” gave an Antiproliferative Activity (% of native), Human (WISH) [1] of under 0.2%, an Antiviral Activity (% of Native), Human (HeLa) [1] of under 0.04% and an Antiviral Activity (% of Native), Human (Wish) [1] of under 0.1%. It also gave an Antiviral Activity (% of Native), Murine (L-929) [2] of under 0.01%.

For “IFN-α2/α1[K120E/K121E] (from UniProt A0A087WWS6 25-190) (ligand)”, the Antiproliferative Activity (% of native), Human (WISH) [1] was under 0.05%, the Antiviral Activity (% of Native), Human (HeLa) [1] was under 0.08% and the Antiviral Activity (% of Native), Human (Wish) [1] was 0.006%. It also gave an Antiproliferative Activity (% of native), Murine (NFS-01) [2] of under 0.0001% and an Antiviral Activity (% of Native), Murine (L-929) [2] of under 0.04%.

With “IFN-α2/α1[K120E] (from UniProt A0A087WWS6 25-190) (ligand)” the Antiproliferative Activity (% of native), Human (WISH) [1] was under 0.02%, the Antiviral Activity (% of Native), Human (HeLa) [1] was under 0.04% and the Antiviral Activity (% of Native), Human (Wish) [1] was under 0.02%. It also gave an Antiproliferative Activity (% of native), Murine (NFS-01) [2] of under 0.0005% and an Antiviral Activity (% of Native), Murine (L-929) [2] of under 0.04%.

For “IFN-α2/α1[K121E] (from UniProt A0A087WWS6 25-190) (ligand)”, the Antiviral Activity (% of Native), Human (HeLa) [1] was 8% and the Antiviral Activity (% of Native), Murine (L-929) [2] was 0.5%.

Work on “IFN-α2/α1[L80A/C85A/Y89A] (from UniProt A0A087WWS6 25-190) (ligand)” yielded an Antiviral Activity (% of Native), Human (HeLa) [1] of 54%, an Antiviral Activity (% of Native), Human (Wish) [1] of 204% and an Antiviral Activity (% of Native), Murine (L-929) [2] of 100%.

“IFN-α2/α1[L80A] (from UniProt A0A087WWS6 25-190) (ligand)” showed an Antiviral Activity (% of native), Human; *Assay on human A549 cells [1] of 19% and an Antiviral Activity (% of Native), Murine (L-929) [2] of 31%.

With “IFN-α2/α1[N65A/L80A/C85A/Y89A] (from UniProt A0A087WWS6 25-190) (ligand)” the Antiviral activity (relative %), IFN-α2/α1, Human HeLa (partial results) [1] was 63% and the Antiviral Activity (% of Native), Murine (L-929) [2] was 55%.

Work on “IFN-α2/α1[R124E] (from UniProt A0A087WWS6 25-190) (ligand)” yielded an Antiviral Activity (% of Native), Human (HeLa) [1] of 20% and an Antiviral Activity (% of Native), Murine (L-929) [2] of 100%.

“IFN-α2/α1[Y89A] (from UniProt A0A087WWS6 25-190) (ligand)” was tested, and the Antiviral Activity (% of Native), Human (HeLa) [1] was 69%, the Antiviral Activity (% of Native), Human (Wish) [1] was 96% and the Antiviral Activity (% of Native), Murine (L-929) [2] was 38%.

Work on “IFN-α2b-[Arg120Glu/Lys121Glu] (from UniProt P01563 24-188) (ligand)” yielded an Antiproliferative Activity (% of Native EC50), Human (Wish) [1] of under 0.02%, an Antiviral Activity (% of Native EC50), Human (HeLa) [1] of under 1.3% and an Antiviral Activity (% of Native EC50), Human (Wish) [1] of under 0.002%.

In the case of “IFN-α2b[R120A] (from UniProt P01563 24-188) (ligand)”, the Antiproliferative Activity, Human (Wish; %) [1] is reported as 0.05% and the Antiviral Activity (% of Native EC50), Human (HeLa) [1] is reported as 2.3%.

B1: human-derived chimeric IFN-α2/α1 (native) (ligand)
chain: CDLPQTHSLGSRRTLMLLAQMRKISLFSCLKDRHDFGFPQEEFGNQFQKAETIPVLHEMIQQIFNLFTTKDSSAAWDEDLLDKFCTELYQQLNDLEACVMQEERVGETPLMNADSILAVKKYFRRITLYLTEKKYSPCAWEVVRAEIMRSLSLSTNLQERLRRKE
notes: the text itself names F64; E. coli; also called IFN-αA/D; Hu-alpha2/1
B1 was tested, and the “fold stronger affinity than IFN-α2” value [3] was about 5 fold and the “ratio of KD to that of IFN-α2” value [3] was about 0.2.
